± gives the uncertainty stated by the source.
Experiment: self-splicing fitness, log relative to wild type (ln ratio); higher = more splicing; Tetrahymena group I intron in knt gene, E. coli kanamycin selection, DiMSum; sequences stand for … in CUCUCU…GGAGGGAAAAGUUAUCAGGCAUGCACCUGGUAGCUAGUCUUUAAACCAAUAGAUUGCAUCGGUUUAAAAGGCAAGACCGUCAAAUUGCGGGAAAGGGGUCAACAGCCGUUCAGUACCAAGUCUCAGGGGAAACUUUGAGAUGGCCUUGCAAAGGGUAUGGUAAUAAGCUGACGGACAUGGUCCUAACCACGCAGCCAAGUCCUAAGUCAACAGAUCUUCUGUUGAUAUGGAUGCAGUUCACAGACUAAAUGUCGGUCGGGGAAGAUGUAUUCUUCUCAUAAGAUAUAGUCGGACCUCUCCUUAAUGGGAGCUAGCGGAUGAAGUGAUGCAACACUGGAGCCGCUGGGAACUAAUUUGUAUGCGAAAGUAUAUUGAUUAGUUUUGGAGUACUCGUGGUCG
Procedure, shortened: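 Library with all eight P1ex-region intron nucleotides randomised, intron inside the knt kanamycin-resistance gene on pET-22b(+), in E. coli BL21(DE3). Cells grew overnight at 37°C or 30°C on LB agar with or without 25 μg/mL kanamycin (plus 100 μg/mL carbenicillin, 50 μM IPTG, 0.2% rhamnose), in six replicate transformations. Pooled colonies were amplicon-sequenced on Illumina HiSeq 2500. DiMSum fitness is the error-weighted combination of wild-type-normalised replicate fold changes, kanamycin versus none.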

| Sequence | self-splicing fitness (ln) (30 °C) | self-splicing fitness (ln) (37 °C) |
| --- | --- | --- |
| AAGCAGCAAUAUUACGAUCU | -0.0506 ± 0.075 | 0.801 ± 0.09 |
| AAGCAGCAAUAUUACGCAUU | -2.49 ± 0.12 | -1.23 ± 0.12 |
| AAGCAGCAAUAUUACGCCGC |  | -2.37 ± 0.45 |
| AAGCAGCAAUAUUACGGCUA | -0.14 ± 0.066 | 0.0975 ± 0.086 |
| AAGCAGCAAUAUUACGGUGG | -3.64 ± 0.18 | -1.98 ± 0.17 |
| AAGCAGCAAUAUUACGUAAC | -2.67 ± 0.11 | -1.94 ± 0.14 |
| AAGCAGCAAUAUUACGUGCA | -0.892 ± 0.065 | -0.453 ± 0.084 |
| AAGCAGCAAUAUUACGUUCG | -1.98 ± 0.089 | -0.509 ± 0.1 |
| AAGCAGCAAUAUUACGUUGG | -3.77 ± 0.17 | -1.45 ± 0.11 |
| AAGGAGCAAUAUUACGAAAG | -2.93 ± 0.21 |  |
| AAGGAGCAAUAUUACGACCG | -2.16 ± 0.29 |  |
| AAGGAGCAAUAUUACGACUG | -1.75 ± 0.16 | -1.05 ± 0.18 |
| AAGGAGCAAUAUUACGACUU | -1.12 ± 0.086 | -1.26 ± 0.1 |
| AAGGAGCAAUAUUACGAGGA | -3.21 ± 0.46 | -1.95 ± 0.38 |
| AAGGAGCAAUAUUACGAUUA |  | -1.96 ± 0.28 |
| AAGGAGCAAUAUUACGCCUA | -1.21 ± 0.15 | -1.35 ± 0.14 |
| AAGGAGCAAUAUUACGCCUG | -2.1 ± 0.28 | -0.484 ± 0.44 |
| AAGGAGCAAUAUUACGCGAC | -2.44 ± 0.41 | -1.54 ± 0.35 |
| AAGGAGCAAUAUUACGCUUA | -1.49 ± 0.17 | -1.1 ± 0.16 |
| AAGGAGCAAUAUUACGGCAC | -1.23 ± 0.47 | -1.62 ± 0.46 |
| AAGGAGCAAUAUUACGGGGC | -3.81 ± 0.22 | -2.34 ± 0.16 |
| AAGGAGCAAUAUUACGGUCG | -2.96 ± 0.22 |  |
| AAGGAGCAAUAUUACGUAUC |  | -2.8 ± 0.44 |
| AAGGAGCAAUAUUACGUCCA | -1.29 ± 0.16 | -0.459 ± 0.16 |
| AAGGAGCAAUAUUACGUCCC | 0.0851 ± 0.15 | -1.06 ± 0.23 |
| AAGGAGCAAUAUUACGUCGA | -1.74 ± 0.2 | -1.89 ± 0.2 |

| Sequence | self-splicing fitness (ln) (30 °C) | self-splicing fitness (ln) (37 °C) |
| --- | --- | --- |
| AAGGAGCAAUAUUACGUCGG | -3.13 ± 0.19 | -2.74 ± 0.33 |
| AAGGAGCAAUAUUACGUCGU | -2.73 ± 0.11 | -0.982 ± 0.12 |
| AAGUAGCAAUAUUACGAAAU | -2.3 ± 0.2 | -0.59 ± 0.18 |
| AAGUAGCAAUAUUACGACGC | -0.792 ± 0.12 | 0.204 ± 0.14 |
| AAGUAGCAAUAUUACGAGGC | -3.44 ± 0.29 |  |
| AAGUAGCAAUAUUACGAUAA | -1.36 ± 0.12 | -1.09 ± 0.13 |
| AAGUAGCAAUAUUACGAUUA | -0.56 ± 0.1 | -0.688 ± 0.08 |
| AAGUAGCAAUAUUACGAUUC | -0.923 ± 0.12 | -0.577 ± 0.15 |
| AAGUAGCAAUAUUACGCACA | -0.522 ± 0.088 | -0.00649 ± 0.14 |
| AAGUAGCAAUAUUACGCACG | -1.5 ± 0.13 | 0.587 ± 0.13 |
| AAGUAGCAAUAUUACGCGGA | -2.09 ± 0.18 | -1.04 ± 0.15 |
| AAGUAGCAAUAUUACGCGUC | -1.96 ± 0.12 | -2 ± 0.19 |
| AAGUAGCAAUAUUACGCUUA | -0.794 ± 0.14 | -0.587 ± 0.14 |
| AAGUAGCAAUAUUACGGCGG | -2.56 ± 0.17 | -0.842 ± 0.15 |
| AAGUAGCAAUAUUACGGGAA | -2.74 ± 0.2 | -2.8 ± 0.23 |
| AAGUAGCAAUAUUACGGGCA | -1.25 ± 0.088 | -0.149 ± 0.098 |
| AAGUAGCAAUAUUACGGUAG | -2.85 ± 0.22 | -2.72 ± 0.2 |
| AAGUAGCAAUAUUACGGUCA | -0.974 ± 0.094 | -0.354 ± 0.1 |
| AAGUAGCAAUAUUACGGUUG | -2.78 ± 0.1 | -2.16 ± 0.11 |
| AAGUAGCAAUAUUACGUAGC | -3.25 ± 0.33 | -2.3 ± 0.31 |
| AAGUAGCAAUAUUACGUAUC | -2.36 ± 0.14 | -1.15 ± 0.11 |
| AAGUAGCAAUAUUACGUGAG | -1.57 ± 0.048 | -0.575 ± 0.066 |
| AAGUAGCAAUAUUACGUGGC | -2.22 ± 0.18 | -3.29 ± 0.39 |
| AAGUAGCAAUAUUACGUGGG | -3.49 ± 0.2 | -3.24 ± 0.23 |
| AAGUAGCAAUAUUACGUUUC | -3.93 ± 0.33 | -2.03 ± 0.21 |
| AAGUAGCAAUAUUACGUUUG | -2.41 ± 0.13 | -1.49 ± 0.13 |

| Sequence | self-splicing fitness (ln) (30 °C) | self-splicing fitness (ln) (37 °C) |
| --- | --- | --- |
| AAUAAGCAAUAUUACGAAGU | -3.44 ± 0.18 | -1.94 ± 0.17 |
| AAUAAGCAAUAUUACGAAUA | -1.54 ± 0.13 | -1.62 ± 0.15 |
| AAUAAGCAAUAUUACGACUU | -0.182 ± 0.065 | 0.451 ± 0.094 |
| AAUAAGCAAUAUUACGAGUA | -1.67 ± 0.19 | -0.925 ± 0.16 |
| AAUAAGCAAUAUUACGAUAU | -1.71 ± 0.11 | -0.747 ± 0.13 |
| AAUAAGCAAUAUUACGAUGU | -0.62 ± 0.076 | -0.682 ± 0.11 |
| AAUAAGCAAUAUUACGCCCC | 0.198 ± 0.2 | -0.311 ± 0.24 |
| AAUAAGCAAUAUUACGCCCG | -1.39 ± 0.15 | -0.203 ± 0.18 |
| AAUAAGCAAUAUUACGCCGU | -1.24 ± 0.11 | -0.293 ± 0.11 |
| AAUAAGCAAUAUUACGCCUA | 0.0474 ± 0.09 | -0.183 ± 0.098 |
| AAUAAGCAAUAUUACGCGUA | -1.25 ± 0.14 | -0.929 ± 0.13 |
| AAUAAGCAAUAUUACGCUAC | -3.62 ± 0.34 | -1.82 ± 0.23 |
| AAUAAGCAAUAUUACGCUAU | -2.74 ± 0.16 | -2.24 ± 0.18 |
| AAUAAGCAAUAUUACGCUGG | -1.81 ± 0.17 | -1.5 ± 0.21 |
| AAUAAGCAAUAUUACGGACU | -0.768 ± 0.071 | 0.349 ± 0.1 |
| AAUAAGCAAUAUUACGGAUG | -2.21 ± 0.1 | -1.39 ± 0.1 |
| AAUAAGCAAUAUUACGGCAG | -0.454 ± 0.11 | -0.547 ± 0.16 |
| AAUAAGCAAUAUUACGGCUC | -0.468 ± 0.13 | 0.129 ± 0.15 |
| AAUAAGCAAUAUUACGGGGG | -2.91 ± 0.19 | -2.75 ± 0.21 |
| AAUAAGCAAUAUUACGGUCA | -0.268 ± 0.084 | 0.155 ± 0.12 |
| AAUAAGCAAUAUUACGGUGC | -3 ± 0.15 | -2.26 ± 0.23 |
| AAUAAGCAAUAUUACGGUGG | -4.07 ± 0.17 | -2.31 ± 0.13 |
| AAUAAGCAAUAUUACGUACG | -0.966 ± 0.14 | -0.239 ± 0.17 |
| AAUAAGCAAUAUUACGUAGC |  | -2.38 ± 0.27 |
| AAUAAGCAAUAUUACGUCGC | -2.48 ± 0.16 | -1.21 ± 0.14 |
| AAUAAGCAAUAUUACGUGCU | -1.8 ± 0.074 | -1.29 ± 0.08 |

— the supplement of paper PMC7877785
